Measurements: PMC4669772, “The conserved Trp114 residue of thioredoxin reductase 1 has a redox sensor-like function triggering oligomerization and crosslinking upon oxidative stress related to cell death” (Cell Death & Disease, 2015)
Substitutions are numbered along the chain they refer to.

B1: recombinant rat TrxR1 W114E (enzyme)
chain: MNDSKDAPKSYDFDLIIIGGGSGGLAAAKEAAKFDKKVMVLDFVTPTPLGTRWGLGGTCVNVGCIPKKLMHQAALLGQALKDSRNYGWKLEDTVKHDWEKMTESVQNHIGSLNEGYRVALREKKVVYENAYGKFIGPHKIMATNNKGKEKVYSAERFLIATGERPRYLGIPGDKEYCISSDDLFSLPYCPGKTLVVGASYVALECAGFLAGIGLDVTVMVRSILLRGFDQDMANKIGEHMEEHGIKFIRQFVPTKIEQIEAGTPGRLKVTAKSTNSEETIEDEFNTVLLAVGRDSCTRTIGLETVGVKINEKTGKIPVTDEEQTNVPYIYAIGDILEGKLELTPVAIQAGRLLAQRLYGGSTVKCDYDNVPTTVFTPLEYGCCGLSEEKAVEKFGEENIEVYHSFFWPLEWTVPSRDNNKCYAKVICNLKDNERVVGFHVLGPNAGEVTQGFAAALKCGLTKQQLDSTIGIHPVCAEIFTTLSVTKRSGGDILQSGCUG
modifications: selenocysteine (Sec, U) at 498
notes: thioredoxin reductase 1, rat, with Trp114 changed to Glu; also called Glu114; source: E. coli BL21 (DE3) gor-, purified (2'5'-ADP Sepharose, Superdex G200 size exclusion)
B2: recombinant rat TrxR1 W114G (enzyme)
chain: B1 chain with E114G
modifications: selenocysteine (Sec, U) at 498
notes: thioredoxin reductase 1, rat, with Trp114 changed to Gly; also called Gly114; source: E. coli BL21 (DE3) gor-, purified (2'5'-ADP Sepharose, Superdex G200 size exclusion)
B3: recombinant rat thioredoxin reductase 1 (TrxR1), wild type (enzyme)
chain: B1 chain with E114W
modifications: selenocysteine (Sec, U) at 498
notes: thioredoxin reductase 1, rat, expressed from a pET-TRSTER-derived plasmid with pSUABC; FAD-containing homodimer; tetramers (two dimers) were purified from the same preparation in the absence of reductant; In the tetramer two of the four Trp114 are modified (oxidised) and linked; also called WT; wild-type TrxR1; source: E. coli BL21 (DE3) gor-, purified (2'5'-ADP Sepharose, Superdex G200 size …)
B4: recombinant rat TrxR1 W114F (enzyme)
chain: B1 chain with E114F
modifications: selenocysteine (Sec, U) at 498
notes: thioredoxin reductase 1, rat, with Trp114 changed to Phe; also called Phe114; source: E. coli BL21 (DE3) gor-, purified (2'5'-ADP Sepharose, Superdex G200 size exclusion)
B5: recombinant rat TrxR1 W114R (enzyme)
chain: B1 chain with E114R
modifications: selenocysteine (Sec, U) at 498
notes: thioredoxin reductase 1, rat, with Trp114 changed to Arg; also called Arg114; source: E. coli BL21 (DE3) gor-, purified (2'5'-ADP Sepharose, Superdex G200 size exclusion)

What was measured:
[1] = target: the molecule itself; assay: SEC; propensity of purified recombinant rat TrxR1 variants to form oligomers (Supplementary Figure S8); oligomers separated on Superdex G200 at 4 °C
[2] = target: the molecule itself; assay: native gel or EMSA; purified recombinant TrxR1 tetramers, native PAGE under reducing conditions
[3] = target: the molecule itself; assay: native gel or EMSA; purified recombinant TrxR1 tetramers, native PAGE under oxidized (non-reducing) conditions; dimers to tetramer

Protein | binding result [1] | stoichiometry N [2] | stoichiometry N [3]
B1 | binds | – | –
B2 | binds | – | –
B3 | – | 2 | 4
B4 | binds | – | –
B5 | binds | – | –
